Earlier results as cited in article PMC8215388.

Molecular target: DnaK (Escherichia coli) (UniProt P0A6Y8)
Assay: analytical ultracentrifugation and cross-linking

Chain of DnaK (P0A6Y8 2-638): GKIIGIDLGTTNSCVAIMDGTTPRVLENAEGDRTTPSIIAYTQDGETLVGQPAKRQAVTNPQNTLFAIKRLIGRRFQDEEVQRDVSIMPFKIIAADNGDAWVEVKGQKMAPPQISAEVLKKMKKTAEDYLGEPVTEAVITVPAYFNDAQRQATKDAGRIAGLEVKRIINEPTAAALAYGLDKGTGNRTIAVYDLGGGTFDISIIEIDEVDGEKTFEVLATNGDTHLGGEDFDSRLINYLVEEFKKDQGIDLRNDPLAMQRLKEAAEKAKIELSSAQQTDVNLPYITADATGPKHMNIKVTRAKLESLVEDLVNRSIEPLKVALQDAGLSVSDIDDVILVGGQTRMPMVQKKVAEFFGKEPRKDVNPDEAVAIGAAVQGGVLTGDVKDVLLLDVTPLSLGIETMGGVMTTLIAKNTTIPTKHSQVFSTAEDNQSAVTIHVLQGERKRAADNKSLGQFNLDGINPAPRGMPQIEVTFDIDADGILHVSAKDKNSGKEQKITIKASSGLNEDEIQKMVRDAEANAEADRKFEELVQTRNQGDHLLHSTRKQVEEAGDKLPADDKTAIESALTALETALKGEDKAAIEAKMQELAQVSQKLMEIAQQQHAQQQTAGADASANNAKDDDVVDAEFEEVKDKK

Kd: 200 µM
Substance: DnaK (from UniProt P0A6Y8)
